# According to patent US11198713B2, “Agents modulating beta-catenin functions and methods thereof” (FOG PHARMACEUTICALS, INC., priority 2017, dated 2021):
# Numbered stars: 1 amine (or outer) side, 2 acyl side, 3 side chain; on linkers, the order of the positions; unused ones are H or OH. Bridge positions count the residues as written; N and C are the ends. Square brackets hold non-standard residues; d marks the D form. Primed or numbered codes have the meaning given here. MB(10) = Monomer B = PyrS, pyrrolidine stapling residue with allyl carbamate, (S)-3-amino-1-(allyloxycarbonyl)pyrrolidine-3-carboxylic acid, C=CCOC(=O)N1CC[C@@](N[*:1])(C(=O)[*:2])C1; MB(8) = Monomer B (PyrS), pyrrolidine stapling residue bearing N-allyl carbamate (Alloc), forms carbamate staple with R8 by ring-closing olefin metathesis, i to i+7; MB(9) = Monomer B (PyrS), pyrrolidine stapling residue with N-allyloxycarbonyl (Alloc), forms a carbamate staple with R8 by olefin metathesis; 2Pal = N[C@@H](Cc1ccccn1)C(=O)O; R8 = C=CCCCCCC[C@@](C)(N)C(=O)O
# T1: full-length beta-catenin (Axin site) (Homo sapiens, UniProt P35222)
# T1 construct: 15 nM full-length beta-catenin, 20 nM FITC labeled peptide in buffer
# T1 sequence (P35222 1-781): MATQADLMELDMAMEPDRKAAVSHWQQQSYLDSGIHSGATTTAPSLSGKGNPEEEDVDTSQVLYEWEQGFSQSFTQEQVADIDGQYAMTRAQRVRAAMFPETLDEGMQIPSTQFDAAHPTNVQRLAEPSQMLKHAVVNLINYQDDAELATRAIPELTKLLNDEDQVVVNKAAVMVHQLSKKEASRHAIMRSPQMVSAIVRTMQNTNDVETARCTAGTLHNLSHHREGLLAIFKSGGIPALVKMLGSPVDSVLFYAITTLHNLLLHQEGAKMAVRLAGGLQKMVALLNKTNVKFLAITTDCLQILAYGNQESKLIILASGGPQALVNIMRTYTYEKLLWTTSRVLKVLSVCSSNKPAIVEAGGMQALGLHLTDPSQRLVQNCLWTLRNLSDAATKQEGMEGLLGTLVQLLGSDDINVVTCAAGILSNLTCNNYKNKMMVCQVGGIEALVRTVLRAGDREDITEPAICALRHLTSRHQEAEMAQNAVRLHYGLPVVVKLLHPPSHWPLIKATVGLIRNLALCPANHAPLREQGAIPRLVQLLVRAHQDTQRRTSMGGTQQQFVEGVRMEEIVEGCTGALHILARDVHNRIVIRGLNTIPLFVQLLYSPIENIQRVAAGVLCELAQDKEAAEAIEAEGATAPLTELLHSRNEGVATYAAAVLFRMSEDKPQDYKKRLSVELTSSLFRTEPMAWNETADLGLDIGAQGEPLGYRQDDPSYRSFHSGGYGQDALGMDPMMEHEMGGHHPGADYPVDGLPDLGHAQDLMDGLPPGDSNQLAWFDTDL
# T2: full-length beta-catenin (UniProt P35222 2-781, limits assumed)
# T2 construct: mature; also called full-length ß-Catenin; β-catenin
# T2 sequence (looked up): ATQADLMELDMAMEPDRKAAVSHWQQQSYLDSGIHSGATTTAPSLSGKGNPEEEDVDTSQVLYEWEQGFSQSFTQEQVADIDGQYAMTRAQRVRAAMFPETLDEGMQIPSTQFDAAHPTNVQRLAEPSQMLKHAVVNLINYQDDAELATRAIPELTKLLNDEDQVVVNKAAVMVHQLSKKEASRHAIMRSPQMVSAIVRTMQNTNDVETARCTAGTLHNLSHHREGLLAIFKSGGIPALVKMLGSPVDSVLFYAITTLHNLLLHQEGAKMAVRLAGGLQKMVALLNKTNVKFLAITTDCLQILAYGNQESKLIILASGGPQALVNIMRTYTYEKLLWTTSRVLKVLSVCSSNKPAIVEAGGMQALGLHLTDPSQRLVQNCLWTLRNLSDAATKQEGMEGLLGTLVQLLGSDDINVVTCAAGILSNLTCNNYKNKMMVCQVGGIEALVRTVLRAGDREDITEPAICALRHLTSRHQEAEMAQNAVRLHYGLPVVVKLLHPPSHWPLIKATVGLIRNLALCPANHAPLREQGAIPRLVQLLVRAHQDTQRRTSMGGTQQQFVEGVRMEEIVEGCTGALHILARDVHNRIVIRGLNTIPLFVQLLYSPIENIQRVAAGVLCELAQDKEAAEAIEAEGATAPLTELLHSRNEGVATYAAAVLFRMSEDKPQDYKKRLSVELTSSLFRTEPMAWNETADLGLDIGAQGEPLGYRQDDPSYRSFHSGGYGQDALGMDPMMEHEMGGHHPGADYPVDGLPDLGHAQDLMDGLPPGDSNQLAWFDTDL
# B1: FP0409c (peptide)
# peptide: AXILDAHAXRVW
# modifications: not fully specified; Ac-A-R8-I-L-D-A-H-A-MB-R-V-W-NH2; carbamate staple R8/MB
# B2: FP0556c Isomer 2 (peptide)
# peptide: Ac-A[R8]ILDA[2Pal]I[MB(10)]IVW-NH2
# modifications: staple 2-9; not fully specified; printed as Ac-A-R8-I-L-D-A-2pyr-I-MB-I-V-W-NH2
# B3: FP0561c Isomer 1 (peptide)
# peptide: Ac-A[R8]ILDA[2Pal]I[MB(8)]TVW-NH2
# modifications: staple 2-9; not fully specified; printed as Ac-A-R8-I-L-D-A-2pyr-I-MB-T-V-W-NH2
# B4: FP0558c Isomer 2 (peptide)
# peptide: Ac-A[R8]ILDA[2Pal]I[MB(9)]NVW-NH2
# modifications: staple 2-9; not fully specified; printed as Ac-A-R8-I-L-D-A-2pyr-I-MB-N-V-W-NH2
# B5: FP0561c Isomer 2 (peptide)
# peptide: Ac-A[R8]ILDA[2Pal]I[MB(8)]TVW-NH2
# modifications: staple 2-9; not fully specified; printed as Ac-A-R8-I-L-D-A-2pyr-I-MB-T-V-W-NH2
# B6: FP0557c Isomer 1 (peptide)
# peptide: Ac-A[R8]ILDA[2Pal]I[MB(9)]LVW-NH2
# modifications: staple 2-9; not fully specified; printed as Ac-A-R8-I-L-D-A-2pyr-I-MB-L-V-W-NH2
# B7: FP0555c Isomer 2 (peptide)
# peptide: Ac-A[R8]ILDA[2Pal]I[MB(10)]FVW-NH2
# modifications: staple 2-9; not fully specified; printed as Ac-A-R8-I-L-D-A-2pyr-I-MB-F-V-W-NH2
# B8: FP0559c Isomer 1 (peptide)
# peptide: Ac-A[R8]ILDA[2Pal]I[MB(9)]QVW-NH2
# modifications: staple 2-9; not fully specified; printed as Ac-A-R8-I-L-D-A-2pyr-I-MB-Q-V-W-NH2
# B9: FP0554c Isomer 1 (peptide)
# peptide: Ac-A[R8]ILDA[2Pal]I[MB(10)]AVW-NH2
# modifications: staple 2-9; not fully specified; printed as Ac-A-R8-I-L-D-A-2pyr-I-MB-A-V-W-NH2
# B10: FP0562c Isomer 1 (peptide)
# peptide: Ac-A[R8]ILDA[2Pal]I[MB(8)]VVW-NH2
# modifications: staple 2-9; not fully specified; printed as Ac-A-R8-I-L-D-A-2pyr-I-MB-V-V-W-NH2
# B11: FP0540c (peptide)
# peptide: Ac-A[R8]ILDAFI[MB(10)]RVW-NH2
# modifications: staple 2-9
# B12: FP0559c Isomer 2 (peptide)
# peptide: Ac-A[R8]ILDA[2Pal]I[MB(8)]QVW-NH2
# modifications: staple 2-9; not fully specified; printed as Ac-A-R8-I-L-D-A-2pyr-I-MB-Q-V-W-NH2
# B13: FP0557c Isomer 2 (peptide)
# peptide: Ac-A[R8]ILDA[2Pal]I[MB(9)]LVW-NH2
# modifications: staple 2-9; not fully specified; printed as Ac-A-R8-I-L-D-A-2pyr-I-MB-L-V-W-NH2
# B14: FP0560c Isomer 1 (peptide)
# peptide: Ac-A[R8]ILDA[2Pal]I[MB(8)]SVW-NH2
# modifications: staple 2-9; not fully specified; printed as Ac-A-R8-I-L-D-A-2pyr-I-MB-S-V-W-NH2
# B15: FP0555c Isomer 1 (peptide)
# peptide: Ac-A[R8]ILDA[2Pal]I[MB(10)]FVW-NH2
# modifications: staple 2-9; not fully specified; printed as Ac-A-R8-I-L-D-A-2pyr-I-MB-F-V-W-NH2
# B16: FP0554c Isomer 2 (peptide)
# peptide: Ac-A[R8]ILDA[2Pal]I[MB(10)]AVW-NH2
# modifications: staple 2-9; not fully specified; printed as Ac-A-R8-I-L-D-A-2pyr-I-MB-A-V-W-NH2
# B17: FP0556c Isomer 1 (peptide)
# peptide: Ac-A[R8]ILDA[2Pal]I[MB(10)]IVW-NH2
# modifications: staple 2-9; not fully specified; printed as Ac-A-R8-I-L-D-A-2pyr-I-MB-I-V-W-NH2
# B18: FP0560c Isomer 2 (peptide)
# peptide: Ac-A[R8]ILDA[2Pal]I[MB(8)]SVW-NH2
# modifications: staple 2-9; not fully specified; printed as Ac-A-R8-I-L-D-A-2pyr-I-MB-S-V-W-NH2
# B19: FP0558c Isomer 1 (peptide)
# peptide: Ac-A[R8]ILDA[2Pal]I[MB(9)]NVW-NH2
# modifications: staple 2-9; not fully specified; printed as Ac-A-R8-I-L-D-A-2pyr-I-MB-N-V-W-NH2
# Molecular target: T1, full-length beta-catenin (Axin site)
# Experiment: Competition fluorescence polarization assay (Axin site probe)
# Assay type: binding
# Details: competition fluorescence polarization, Table 2; read-out: in vitro FP EC50
# In short: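 Competition FP: 15 nM full-length β-catenin pre-incubated 5 min with 20 nM FITC-labelled stapled Axin-site peptide, then titrated peptide added (3-fold series from 5 μM) for 15 min in the dark. Buffer 50 mM Tris pH 8.0, 250 mM NaCl, 2% glycerol, 0.5 mM EDTA; duplicate reads.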
row,EC50 [nM],Molecule
1,100 to 500,"CC[C@H](C)[C@@H]1NC(=O)[C@H](Cc2c[nH]cn2)NC(=O)[C@H](C)NC(=O)[C@H](CC(=O)O)NC(=O)[C@](C)(CC(C)C)NC(=O)[C@H]([C@@H](C)CC)NC(=O)[C@](C)(NC(=O)[C@H](C)NC(C)=O)CCCCCCC=CCOC(=O)N2CC[C@@](C(=O)N[C@@H](CCCNC(=N)N)C(=O)N[C@H](C(=O)N[C@@H](Cc3c[nH]c4ccccc34)C(N)=O)C(C)C)(C2)NC1=O [FP0644c, Ac-A-R8-I-aMeL-D-A-H-I-MB-R-V-W-NH2]"
2,< 100,"CC[C@H](C)[C@@H]1NC(=O)[C@H](Cc2c[nH]cn2)NC(=O)C(C)(C)NC(=O)[C@H](CC(=O)O)NC(=O)[C@H](CC(C)C)NC(=O)[C@H]([C@@H](C)CC)NC(=O)[C@](C)(NC(=O)[C@H](C)NC(C)=O)CCCCCCC=CCOC(=O)N2CC[C@@](C(=O)N[C@@H](CCCNC(=N)N)C(=O)N[C@H](C(=O)N[C@@H](Cc3c[nH]c4ccccc34)C(N)=O)C(C)C)(C2)NC1=O [FP0645c, Ac-A-R8-I-L-D-Aib-H-I-MB-R-V-W-NH2]"

# Molecular target: T2, full-length beta-catenin
# Experiment: competition FP; NB = no binding detected
# Details: not given
# Experimental: In some embodiments, a competition fluorescence polarization assay is used to assess binding of provided compounds to beta-catenin. In an exemplary procedure, solutions of provided compounds, e.g., provided stapled peptides, were prepared in a buffer (e.g., 50 mM Tris pH 8.0, 250 mM NaCl, 2% glycerol, 0.5 mM EDTA, 0.02% w/v sodium azide) using a 3-fold serial dilution from 5 µM. Probe solution (15 nM full-length ß-Catenin, 20 nM FITC labeled peptide in buffer) was prepared and incubated for a period of time, e.g., 5 minutes, and the a volume, e.g., 40 µL per well plated in suitable plate, e.g., a black polystyrene 384-well plate (Corning). Equal volume of the serial diluted peptide was added to the plate and incubated protected from light for 15 minutes prior to read. Reads were performed on a Spectramax M5 (Molecular Devices) in duplicate. Suitable probe was FITC-PEG1-PQ-S5-ILD-S5-HVRRVWR (SEQ ID NO: 1) (hydrocarbon staple formed by two S5 via olefin metathesis) and/or FITC-bA-PQ-S5-ILD-S5-HVRRVWR (SEQ ID NO: 3) (hydrocarbon staple formed by two S5 via olefin metathesis). […] Another peptide, FPO217c (Ac-AR_8ILDAHIM$B5$RVW (SEQ ID NO: 280), with N-terminal proline removed and valine replaced with isoleucine compared to FP0025c) was prepared.
row,binding result,Molecule
1,no binding,B1
2,no binding,B2
3,no binding,B3
4,no binding,B4
5,no binding,B5
6,no binding,B6
7,no binding,B7
8,no binding,B8
9,no binding,B9
10,no binding,B10
11,no binding,B11
12,no binding,B12
13,no binding,B13
14,no binding,B14
15,no binding,B15
16,no binding,B16
17,no binding,B17
18,no binding,B18
19,no binding,B19
